Laboratory results reported in patent US20030219848A1 (DISCOVERX, published 2003).

Molecular target: enzyme acceptor (EA) fragment of β-galactosidase (UniProt P00722 2-1024 = β-galactosidase, limits assumed)
Experiment: cell-based or functional assay

Sequence of enzyme acceptor (EA) fragment of β-galactosidase (P00722 other isoform, or with tags, fused parts or gaps limits assumed): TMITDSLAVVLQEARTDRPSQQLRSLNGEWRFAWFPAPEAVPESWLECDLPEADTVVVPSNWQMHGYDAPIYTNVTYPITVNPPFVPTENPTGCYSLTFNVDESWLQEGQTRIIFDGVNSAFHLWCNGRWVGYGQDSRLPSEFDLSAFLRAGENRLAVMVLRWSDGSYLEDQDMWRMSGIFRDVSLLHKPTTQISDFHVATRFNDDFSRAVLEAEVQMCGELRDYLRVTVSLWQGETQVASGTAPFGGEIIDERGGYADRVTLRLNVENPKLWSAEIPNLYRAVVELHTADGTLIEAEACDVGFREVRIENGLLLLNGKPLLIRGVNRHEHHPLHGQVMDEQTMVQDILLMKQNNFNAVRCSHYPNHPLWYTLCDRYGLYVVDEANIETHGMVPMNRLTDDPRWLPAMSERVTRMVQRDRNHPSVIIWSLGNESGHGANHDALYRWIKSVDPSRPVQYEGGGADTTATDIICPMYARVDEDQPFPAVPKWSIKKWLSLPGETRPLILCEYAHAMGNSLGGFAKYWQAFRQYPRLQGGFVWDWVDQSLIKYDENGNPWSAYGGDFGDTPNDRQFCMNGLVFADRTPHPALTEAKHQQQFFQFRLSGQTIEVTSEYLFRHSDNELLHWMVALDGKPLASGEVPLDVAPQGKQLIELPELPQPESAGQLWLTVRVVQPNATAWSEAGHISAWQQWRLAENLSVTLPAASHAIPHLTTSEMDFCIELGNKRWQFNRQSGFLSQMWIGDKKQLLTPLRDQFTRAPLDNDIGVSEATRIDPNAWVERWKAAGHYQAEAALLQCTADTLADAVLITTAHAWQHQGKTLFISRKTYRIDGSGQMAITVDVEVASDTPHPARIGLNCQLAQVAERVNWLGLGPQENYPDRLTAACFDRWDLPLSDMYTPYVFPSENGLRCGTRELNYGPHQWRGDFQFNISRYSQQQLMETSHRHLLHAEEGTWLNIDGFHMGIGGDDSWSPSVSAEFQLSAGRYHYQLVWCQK

SLAVVLQRRDWENPGVTQLNKLAAHPPFASWRNSEEARTDCPSQQL [46 mer ED (SEQ ID NO 10)]
complementation activity relative to native 90 mer ED 28 (SEQ ID 17), at the same concentration (0.0123 nM): 72%

SLAVVLQRRDWENPGVTQLNRLAAHPPFASWRNSEEA [37 mer ED (SEQ ID NO 1), short enzyme donor fragment of β-galactosidase]
complementation activity (β-galactosidase activity after ED + EA incubation) relative to native 90 mer ED 28 (SEQ ID 17), ED 0.0123 nM, 60 min: 45%
